Measurements from article PMC11329700, “Dynamin 1xA interacts with Endophilin A1 via its spliced long C-terminus for ultrafast endocytosis” (The EMBO Journal, 2024).
Values belong to the binder of their own block, whether it stands above or below them.

B5: His-tagged mouse Endophilin A1 SH3 domain (domain or fragment)
chain: not shown
notes: Endophilin A1, mouse, SH3 domain; The methods describe only a GST-Endophilin A1-SH3 construct (mouse, amino acids 292-352); the His-tagged construct of the ELISA is not described; also called His-tagged mouse Endophilin-SH3 domain

Tests used:
[1] = target: T1, Dyn1xA-PRR 746-864 (GST tag removed) (rat, UniProt P21575 746-864); assay: SEC-MALS; Superdex 75 10/300 GL, 20 mM HEPES, 100 mM NaCl, 1 mM DTT, 1 mM PMSF, pH 7.2; complex at 0.5 mg and diluted to one third (0.167 mg); details: both partners purified
T1 construct: For SEC-MALS the removal is surmised from the predicted 19.4 kDa of the 1:1 complex; source: E. coli, 15N- or 15N,13C-labelled for NMR, GST cleaved, purified by gel filtration
T1 sequence (looked up): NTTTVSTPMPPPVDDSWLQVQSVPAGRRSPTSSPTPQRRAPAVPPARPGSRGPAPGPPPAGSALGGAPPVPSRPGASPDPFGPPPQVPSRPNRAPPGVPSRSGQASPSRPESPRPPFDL

[2] = target: T2, GST-dyn1xA-PRR R838A (rat, UniProt P21575 746-864, R838A); assay: pull-down; GST fusion proteins on GSH-sepharose beads incubated with pre-cleared rat brain synaptosomal lysate (20 mM Tris pH 7.4, 150 mM NaCl, 1% Triton X-100, 1 mM EDTA, 1 mM EGTA) at 4 °C for 1 h; bound proteins by Coomassie stain or Western blot (some blots quantified by densitometry); details: one partner purified
T2 construct: also called R838A (Dyn1xA-PRR); source: E. coli JM109; GST fusion on GSH-sepharose beads
T2 sequence (looked up): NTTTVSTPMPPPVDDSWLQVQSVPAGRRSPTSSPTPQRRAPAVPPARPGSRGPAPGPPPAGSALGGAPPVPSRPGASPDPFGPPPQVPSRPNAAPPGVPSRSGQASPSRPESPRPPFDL

[3] = target: B5; assay: ELISA; His-tagged mouse Endophilin A1 SH3 domain coated onto a 96-well plate, overlaid with increasing concentrations of GST-tagged Dyn1-PRR peptides; two experiments with four replicates each; details: both partners purified
[4] = target: T3, GST-Dyn1xA-PRR (dynamin 1xA proline-rich region, amino acids 746-864) (rat, UniProt P21575 746-864); assay: as above; details: both partners purified
T3 construct: also called full-length Dyn1xA-PRR; source: E. coli JM109; GST fusion on GSH-sepharose beads (pull-down), GST-tagged in solution (ELISA)
T3 sequence (looked up): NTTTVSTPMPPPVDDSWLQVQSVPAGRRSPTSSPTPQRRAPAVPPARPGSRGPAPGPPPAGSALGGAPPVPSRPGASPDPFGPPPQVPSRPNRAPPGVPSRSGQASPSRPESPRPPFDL

B2: Endophilin A1 (natural protein, UniProt O35179 1-352, looked up)
chain: MSVAGLKKQFHKATQKVSEKVGGAEGTKLDDDFKEMERKVDVTSRAVMEIMTKTIEYLQPNPASRAKLSMINTMSKIRGQEKGPGYPQAEALLAEAMLKFGRELGDDCNFGPALGEVGEAMRELSEVKDSLDMEVKQNFIDPLQNLHDKDLREIQHHLKKLEGRRLDFDYKKKRQGKIPDEELRQALEKFDESKEIAESSMFNLLEMDIEQVSQLSALVQAQLEYHKQAVQILQQVTVRLEERIRQASSQPRREYQPKPRMSLEFATGDGTQPNGGLSHTGTPKPAGVQMDQPCCRALYDFEPENEGELGFKEGDIITLTNQIDENWYEGMLHGQSGFFPINYVEILVALPH
notes: Endophilin-A1, rat, endogenous full-length protein of nerve terminals; The Western blots are probed with antibodies to Endophilin A; also called 40 kDa protein; source: endogenous, rat brain synaptosomal lysate
- binding relative to wild-type Dyn1xA-PRR (median) [2]: 68.2%

B4: Amphiphysin 1 (natural protein, UniProt O08838 1-683, looked up)
chain: MADIKTGIFAKNVQKRLNRAQEKVLQKLGKADETKDEQFEEYVQNFKRQEAEGTRLQRELRGYLAAIKGMQEASMKLTESLHEVYEPDWYGREDVKMVGEKCDVLWEDFHQKLVDGSLLTLDTYLGQFPDIKNRIAKRSRKLVDYDSARHHLEALQSSKRKDESRISKAEEEFQKAQKVFEEFNVDLQEELPSLWSRRVGFYVNTFKNVSSLEAKFHKEIAVLCHKLYEVMTKLGDQHADKAFSIQGAPSDSGPLRIAKTPSPPEEASPLPSPTASPNHTLAPASPAPVRPRSPSQTRKGPPVPPLPKVTPTKELQQENIINFFEDNFVPEINVTTPSQNEVLEVKKEETLLDLDFDPFKPDVTPAGSAAATHSPMSQTLPWDLWTTSTDLVQPASGGSFNDFTQPQDTSLFTMQTDQNMAETEQALPTEPQAEEPPTTAAAPTAGLDLGLEMEEPKEEAAIPPGTDAGETVGTEGSTGEEAEAEKAALPAGEGESPEGAKIDVESTELASSESPQAAELEAGAPQEKVIPSVVIEPASNHEGEEHQETTTGTETREATEDVAPQGPAGEKQELATEPTPLDSQAATPAPAGAVDASLSAGDAAQELPPGFLYKVETLHDFEAANSDELTLQRGDVVLVVPSDSEADQDAGWLVGVKESDWLQYRDLATYKGLFPENFTRHLE
notes: Amphiphysin 1, rat, endogenous in synaptosomes, detected by Western blot; also called Amphiphysin I; source: endogenous, rat brain synaptosomal lysate
- binding relative to wild-type Dyn1xA-PRR (median) [2]: 14.2%

Binder: B5
- Kd [4]: 44 nM

Continued, values first:

- stoichiometry N [1]: 1
B1: Endophilin A1 SH3 domain (GST tag removed) (domain or fragment)
chain: not shown
notes: Endophilin A1, mouse, SH3 domain, amino acids 292-352 (methods); the results print residues D291-H352; Cleavage is stated for the NMR experiments; for SEC-MALS it is surmised from the predicted 19.4 kDa of the 1:1 complex; also called endophilin SH3; Endophilin A SH3; source: E. coli JM109, GST fusion, GST cleaved, purified by gel filtration

- fold difference in affinity from xA 746-864 [3]: < 2 fold
- fold higher affinity than xA 751-798 [3]: 5 fold
B3: GST-Dyn1xA-PRR 806-864 (domain or fragment, rat, UniProt P21575 806-864, looked up)
chain: GSALGGAPPVPSRPGASPDPFGPPPQVPSRPNRAPPGVPSRSGQASPSRPESPRPPFDL
notes: source: E. coli JM109; GST fusion on GSH-sepharose beads (pull-down), GST-tagged in solution (ELISA)
